Reference: the supplement of paper PMC7125110
± gives the standard error. For part of these data: Fewer inactive variants are shown than the library holds.

B1: glmS ribozyme (parent)
chain: AUAAAAGCGCCAGAACUACAGAAAUGUAGUUGACGAGGAGGAGGUUUAUCGAAUUUUCGGCGGAUGCCUCCAAA

What was measured:
Conditions in all cases: with glucosamine-6-phosphate
glucosamine-6-phosphate [1] = variants of: B1; experiment: kcat; higher = faster cleavage; RNA array
Procedure, shortened: (§1)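 Ribozyme variants carrying barcodes were transcribed in situ on sequenced MiSeq chips by E. coli RNA polymerase and tracked at 37 °C with a hybridised Cy3 probe. They were exposed to 40 μM to 10 mM glucosamine-6-phosphate in HEPES/KCl/Mg(OAc)2 buffer. kobs came from exponential decay fits of normalised per-tile medians, and kcat and KM from weighted Michaelis–Menten fits.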

glucosamine-6-phosphate [2] = variants of: B1; experiment: KM; higher = weaker cofactor use; RNA array
Procedure, shortened: as §1

glucosamine-6-phosphate [3] = variants of: B1; experiment: self-cleavage kobs at 40 uM GlcN6P; higher = faster cleavage; RNA array
Procedure, shortened: as §1

glucosamine-6-phosphate [4] = variants of: B1; experiment: self-cleavage kobs at 160 uM GlcN6P; higher = faster cleavage; RNA array
Procedure, shortened: as §1

glucosamine-6-phosphate [5] = variants of: B1; experiment: self-cleavage kobs at 640 uM GlcN6P; higher = faster cleavage; RNA array
Procedure, shortened: as §1

glucosamine-6-phosphate [6] = variants of: B1; experiment: self-cleavage kobs at 2500 uM GlcN6P; higher = faster cleavage; RNA array
Procedure, shortened: as §1

glucosamine-6-phosphate [7] = variants of: B1; experiment: self-cleavage kobs at 10000 uM GlcN6P; higher = faster cleavage; RNA array
Procedure, shortened: as §1

| Variant | kcat (glucosamine-6-phosphate [1]) | KM (glucosamine-6-phosphate [2]) | self-cleavage kobs at 40 uM GlcN6P (glucosamine-6-phosphate [3]) | self-cleavage kobs at 160 uM GlcN6P (glucosamine-6-phosphate [4]) | self-cleavage kobs at 640 uM GlcN6P (glucosamine-6-phosphate [5]) | self-cleavage kobs at 2500 uM GlcN6P (glucosamine-6-phosphate [6]) | self-cleavage kobs at 10000 uM GlcN6P (glucosamine-6-phosphate [7]) |
| --- | --- | --- | --- | --- | --- | --- | --- |
| A39U C67U | 0.0107 ± 0.0018 s⁻¹ | 2220 ± 500 µM | 0.000223 ± 1.9e-05 s⁻¹ | 0.000573 ± 8.1e-05 s⁻¹ | 0.00228 ± 0.00025 s⁻¹ | 0.00631 ± 0.001 s⁻¹ | 0.00878 ± 0.00079 s⁻¹ |
| A42G C58A | 0.00048 ± 3.7e-05 s⁻¹ | 2480 ± 390 µM | – | – | 9.53e-05 ± 3.4e-05 s⁻¹ | 0.000279 ± 0.00013 s⁻¹ | 0.000379 ± 9.4e-05 s⁻¹ |
| A6C C67A | 3.57e-05 ± 2.8e-07 s⁻¹ | 1260 ± 54 µM | – | – | – | – | 3.18e-05 ± 9.1e-06 s⁻¹ |
| A12C U65A | 0.00216 ± 0.00024 s⁻¹ | 2790 ± 570 µM | 3.82e-05 ± 8.1e-06 s⁻¹ | 0.000134 ± 3.3e-05 s⁻¹ | 0.000345 ± 6.5e-05 s⁻¹ | 0.000932 ± 0.00017 s⁻¹ | 0.00173 ± 0.00015 s⁻¹ |
| G41C U46G | 0.000114 ± 3.4e-06 s⁻¹ | 2060 ± 210 µM | – | – | – | 6.37e-05 ± 1.1e-05 s⁻¹ | 9.41e-05 ± 1e-05 s⁻¹ |
| G37A G38C C67U C68G C71U | 2.2e-05 ± 4e-06 s⁻¹ | – | – | – | – | – | – |
| C16A G41A | 4e-05 ± 4.5e-07 s⁻¹ | 806 ± 51 µM | – | – | – | – | 3.7e-05 ± 1.1e-05 s⁻¹ |
| G29U C58G | 8.52e-05 ± 7.7e-06 s⁻¹ | 752 ± 370 µM | – | – | 3.31e-05 ± 1.6e-05 s⁻¹ | 8.3e-05 ± 1.9e-05 s⁻¹ | 7.67e-05 ± 9.9e-06 s⁻¹ |
| U49A C70G | 1.43e-05 ± 3.7e-06 s⁻¹ | – | – | – | – | – | – |
| U45G U55G | 0.00804 ± 0.002 s⁻¹ | 2970 ± 1000 µM | 0.000146 ± 1.5e-05 s⁻¹ | 0.000304 ± 4.5e-05 s⁻¹ | 0.00148 ± 0.00024 s⁻¹ | 0.00365 ± 0.00057 s⁻¹ | 0.00624 ± 0.00057 s⁻¹ |
| A14G U69G | 0.000107 ± 2.2e-05 s⁻¹ | – | 8.24e-05 ± 1.9e-05 s⁻¹ | 5.73e-05 ± 1.7e-05 s⁻¹ | 0.000175 ± 3.5e-05 s⁻¹ | 0.000103 ± 2e-05 s⁻¹ | 0.000113 ± 1.8e-05 s⁻¹ |
| G32U C68G | 1.3e-05 ± 1.3e-06 s⁻¹ | – | – | – | – | – | – |
| C11A A12G | 0.000158 ± 1.7e-05 s⁻¹ | 3020 ± 720 µM | – | – | 2.43e-05 ± 1.1e-05 s⁻¹ | 8.06e-05 ± 2.3e-05 s⁻¹ | 0.000119 ± 2.5e-05 s⁻¹ |
| A48C U54A | 0.000452 ± 4.8e-05 s⁻¹ | 1720 ± 350 µM | – | 3.98e-05 ± 2e-05 s⁻¹ | 0.000118 ± 2.2e-05 s⁻¹ | 0.000342 ± 8.9e-05 s⁻¹ | 0.000371 ± 6.6e-05 s⁻¹ |
| C10A C58G | 1.34e-05 ± 2.4e-06 s⁻¹ | – | – | – | – | – | – |
| G13A C16A | 0.000316 ± 9.2e-06 s⁻¹ | – | – | – | – | 4.78e-05 ± 7.4e-06 s⁻¹ | 0.000132 ± 1.9e-05 s⁻¹ |
| G13C A14C C61A C67U | 3.08e-05 ± 1.3e-05 s⁻¹ | – | – | – | 4.47e-05 ± 1.8e-05 s⁻¹ | – | – |
| C16G U65G | 0.00228 ± 0.0011 s⁻¹ | – | – | 6.11e-05 ± 1.6e-05 s⁻¹ | 0.000149 ± 6.2e-05 s⁻¹ | 0.000455 ± 0.00013 s⁻¹ | 0.00143 ± 0.00036 s⁻¹ |

| Variant | kcat (glucosamine-6-phosphate [1]) | KM (glucosamine-6-phosphate [2]) | self-cleavage kobs at 40 uM GlcN6P (glucosamine-6-phosphate [3]) | self-cleavage kobs at 160 uM GlcN6P (glucosamine-6-phosphate [4]) | self-cleavage kobs at 640 uM GlcN6P (glucosamine-6-phosphate [5]) | self-cleavage kobs at 2500 uM GlcN6P (glucosamine-6-phosphate [6]) | self-cleavage kobs at 10000 uM GlcN6P (glucosamine-6-phosphate [7]) |
| --- | --- | --- | --- | --- | --- | --- | --- |
| A39U G41U | 0.00058 ± 0.00011 s⁻¹ | 1710 ± 530 µM | – | 6.52e-05 ± 1.2e-05 s⁻¹ | 0.000138 ± 1.7e-05 s⁻¹ | 0.000402 ± 6.4e-05 s⁻¹ | 0.000489 ± 6.8e-05 s⁻¹ |
| G38U C50G | 4.08e-05 ± 1.4e-05 s⁻¹ | – | – | – | – | 6.94e-05 ± 1.4e-05 s⁻¹ | – |
| G59U C71G | 1.13e-05 ± 1.7e-07 s⁻¹ | 817 ± 71 µM | < 1e-05 s⁻¹ | < 1e-05 s⁻¹ | – | – | – |
| G51A G62A | < 1e-05 s⁻¹ | – | < 1e-05 s⁻¹ | – | – | – | – |
| C34U C50A | 1.45e-05 ± 5.7e-06 s⁻¹ | – | – | – | – | – | – |
| G35A C71G | < 1e-05 s⁻¹ | – | – | < 1e-05 s⁻¹ | < 1e-05 s⁻¹ | – | – |
| A12C A53C | 0.00399 ± 0.0011 s⁻¹ | 2090 ± 920 µM | 0.000109 ± 1.4e-05 s⁻¹ | 0.000285 ± 8.1e-05 s⁻¹ | 0.000662 ± 0.00012 s⁻¹ | 0.00223 ± 0.00038 s⁻¹ | 0.00352 ± 0.00041 s⁻¹ |
| A39U C67A | 0.00981 ± 0.0028 s⁻¹ | 2330 ± 910 µM | 0.000197 ± 2.5e-05 s⁻¹ | 0.000759 ± 0.00012 s⁻¹ | 0.0015 ± 0.00027 s⁻¹ | 0.00477 ± 0.0011 s⁻¹ | 0.00878 ± 0.0012 s⁻¹ |
| G41U C70U | 0.0009 ± 0.00017 s⁻¹ | – | 0.000457 ± 3.9e-05 s⁻¹ | 0.000709 ± 0.0001 s⁻¹ | 0.000714 ± 0.00011 s⁻¹ | 0.00131 ± 0.00021 s⁻¹ | – |
| A39C C58A | 0.000217 ± 9.9e-05 s⁻¹ | – | < 1e-05 s⁻¹ | – | – | – | 5.19e-05 ± 9.6e-06 s⁻¹ |
| G41A A48U | 4.08e-05 ± 6.1e-06 s⁻¹ | – | < 1e-05 s⁻¹ | < 1e-05 s⁻¹ | – | 3.76e-05 ± 1.1e-05 s⁻¹ | 3.63e-05 ± 1e-05 s⁻¹ |
| G38A U49A | < 1e-05 s⁻¹ | – | < 1e-05 s⁻¹ | – | – | – | < 1e-05 s⁻¹ |
| A6U U46C | 2.4e-05 ± 7.8e-07 s⁻¹ | 2710 ± 290 µM | – | < 1e-05 s⁻¹ | – | – | – |
| G13A G66U | 1.72e-05 ± 6.7e-06 s⁻¹ | – | < 1e-05 s⁻¹ | – | – | – | – |
| A6U G13U | < 1e-05 s⁻¹ | – | < 1e-05 s⁻¹ | – | < 1e-05 s⁻¹ | – | – |
| G29C U46C | 9.55e-05 ± 4.5e-06 s⁻¹ | 535 ± 120 µM | – | – | 5.09e-05 ± 1.5e-05 s⁻¹ | 8.67e-05 ± 2.2e-05 s⁻¹ | 8.84e-05 ± 1.4e-05 s⁻¹ |
| G13C A42G | 0.00017 ± 1.8e-05 s⁻¹ | 4030 ± 920 µM | < 1e-05 s⁻¹ | – | 3.16e-05 ± 1.6e-05 s⁻¹ | 6.19e-05 ± 1.3e-05 s⁻¹ | 0.000123 ± 1.8e-05 s⁻¹ |
| U56G U69A | 0.00018 ± 3.2e-05 s⁻¹ | – | 4.08e-05 ± 1.8e-05 s⁻¹ | – | 0.000102 ± 2.7e-05 s⁻¹ | 0.000186 ± 3.1e-05 s⁻¹ | 0.000176 ± 3.7e-05 s⁻¹ |
